From paper PMC5286426, “The Calcium-Dependent Switch Helix of L-Plastin Regulates Actin Bundling” (Scientific Reports, 2017)

Target: T1, L-plastin EF construct (EF-hand headpiece domain, H5 region omitted) (human)
T1 construct: human L-plastin (LPL), EF construct: the two N-terminal EF-hand motifs (helices 1-4, residues 8-79) with the H5 region omitted; holds Cys42; 15N-labelled in the NMR experiment; immobilised by Cys42 in SPR; also called LPL-EF; EF domain of LPL; source: E. coli BL21 (DE3), purified (IMAC, His-tag cleaved with TEV protease); not shown: His-tag, N-terminal, cleaved
Assay: SPR; EF construct immobilised by its sole cysteine (Cys42) on a CM5 chip by thiol coupling; peptides injected; BIAcore X100; 10 mM Tris-HCl pH 7.5, 150 mM KCl, 1 mM CaCl2, 0.005% Tween-20; 30 uL/min, contact 1 min, 25 °C
Settings: both partners purified

B1: CaMKI peptide (CaM-binding peptide) (peptide)
chain: AKSKWKQAFNATAVVRHMRKLQ
modifications: Limits are not given; 299-320 is the conventional 22-residue CaMKI calmodulin-binding peptide. Terminal modifications are not stated.
Kd: 3.27 µM
